Article PMC11098746 (2024)

Assays:
Assay in all cases: AVEXIS screen signal:noise (double-corrected)
ADP098 = target: T1, ADP098
T1 chain: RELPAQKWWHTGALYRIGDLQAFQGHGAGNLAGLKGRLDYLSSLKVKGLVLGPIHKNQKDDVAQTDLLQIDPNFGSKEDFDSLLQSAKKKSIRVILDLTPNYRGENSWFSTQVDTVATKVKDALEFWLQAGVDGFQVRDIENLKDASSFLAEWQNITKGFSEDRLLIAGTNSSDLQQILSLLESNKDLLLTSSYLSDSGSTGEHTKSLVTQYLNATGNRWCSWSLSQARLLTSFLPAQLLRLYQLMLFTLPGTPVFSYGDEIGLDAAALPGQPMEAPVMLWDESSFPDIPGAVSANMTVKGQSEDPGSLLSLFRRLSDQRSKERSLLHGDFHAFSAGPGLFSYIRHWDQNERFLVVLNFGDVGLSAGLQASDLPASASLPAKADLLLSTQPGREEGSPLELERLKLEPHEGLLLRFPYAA

ADP339 = target: T2, ADP339
T2 chain: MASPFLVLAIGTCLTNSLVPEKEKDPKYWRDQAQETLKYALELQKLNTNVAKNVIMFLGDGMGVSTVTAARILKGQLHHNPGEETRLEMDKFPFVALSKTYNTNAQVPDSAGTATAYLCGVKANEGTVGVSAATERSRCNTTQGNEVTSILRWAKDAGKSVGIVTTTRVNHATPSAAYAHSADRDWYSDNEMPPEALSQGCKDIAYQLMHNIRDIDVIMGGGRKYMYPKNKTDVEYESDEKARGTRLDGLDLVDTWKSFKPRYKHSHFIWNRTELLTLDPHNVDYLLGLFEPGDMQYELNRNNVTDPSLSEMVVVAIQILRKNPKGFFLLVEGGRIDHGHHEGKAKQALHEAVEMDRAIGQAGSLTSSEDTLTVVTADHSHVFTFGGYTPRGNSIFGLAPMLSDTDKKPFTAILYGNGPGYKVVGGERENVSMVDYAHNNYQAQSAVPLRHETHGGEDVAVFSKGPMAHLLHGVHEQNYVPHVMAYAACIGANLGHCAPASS

ADP269 = target: T3, ADP269
T3 chain: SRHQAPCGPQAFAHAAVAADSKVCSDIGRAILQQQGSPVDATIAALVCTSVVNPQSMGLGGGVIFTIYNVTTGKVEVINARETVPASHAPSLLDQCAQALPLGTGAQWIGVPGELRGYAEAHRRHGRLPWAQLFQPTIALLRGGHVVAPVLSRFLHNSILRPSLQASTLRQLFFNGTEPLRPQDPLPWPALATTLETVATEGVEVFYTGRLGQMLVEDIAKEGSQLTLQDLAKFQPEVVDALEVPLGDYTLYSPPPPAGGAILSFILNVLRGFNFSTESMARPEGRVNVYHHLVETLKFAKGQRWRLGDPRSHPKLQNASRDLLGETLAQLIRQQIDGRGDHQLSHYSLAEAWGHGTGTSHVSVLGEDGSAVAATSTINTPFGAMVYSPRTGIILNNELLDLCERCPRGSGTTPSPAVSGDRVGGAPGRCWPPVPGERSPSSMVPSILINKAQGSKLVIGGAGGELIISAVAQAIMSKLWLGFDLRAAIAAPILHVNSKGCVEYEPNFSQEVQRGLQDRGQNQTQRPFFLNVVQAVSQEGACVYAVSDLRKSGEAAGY

ADP293 = target: T4, ADP293
T4 chain: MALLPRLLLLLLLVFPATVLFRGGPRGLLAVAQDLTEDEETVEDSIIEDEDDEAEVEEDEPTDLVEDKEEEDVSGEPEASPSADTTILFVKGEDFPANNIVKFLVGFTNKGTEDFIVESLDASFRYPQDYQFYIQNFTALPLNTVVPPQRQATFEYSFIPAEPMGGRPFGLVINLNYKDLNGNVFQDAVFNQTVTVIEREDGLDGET

ADP389 = target: T5, ADP389
T5 chain: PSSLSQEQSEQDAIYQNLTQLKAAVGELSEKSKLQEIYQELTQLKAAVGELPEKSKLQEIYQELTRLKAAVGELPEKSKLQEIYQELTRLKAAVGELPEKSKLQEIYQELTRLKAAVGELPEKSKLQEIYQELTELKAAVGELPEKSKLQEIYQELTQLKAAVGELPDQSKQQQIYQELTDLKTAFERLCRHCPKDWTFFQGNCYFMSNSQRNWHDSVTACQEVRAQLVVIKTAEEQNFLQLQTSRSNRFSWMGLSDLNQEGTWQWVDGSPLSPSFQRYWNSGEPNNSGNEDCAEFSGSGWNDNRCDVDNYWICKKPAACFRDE

B1: ADP169 (protein)
chain: LIRNSNTPQAFLIPELNNNEKNEFNNNEKNEMNNNLNNEFNNNEENCDIQKIAEEMMENLLNENDMYTNIMLSLQNRLSDDYLCSEPKYENICIHEKDKISLSFPCSNPKYEKLIHKFTFKKLCNSKAAFNNALLKSFIEEDEEQNTFSLMLKQFKILLTCVDDELKDIYKESIDLLVDLKTSITELTQKLWSGKMVNVLKKREFLITGILCELRNGNKAPLISKSLEFENLGILKMNNEELLNEAYNAFSDYYYFFPYFIQKLLEKGGMIERLIKIHENLAKYRTKDMVNKINAQSKGEVLNNEDILNKLNAYKHYTKHGATSFIQSREVKIVNQNVNNDDTTKNQQQNVNNNEKLNNNNNNNNNQQVNNNNNNNNQQVNNNNNNNNNQVNNNNNNNNNQVNNNNYNNNNQVNNNNNNNQQVNNNNNYNNQLNNNNFNNNLQVNKNDKHVPKNNHATATHTNNILYNPLYSINPEKPKDIIKLLKDLIKYLHIVKFENNEPTTNIDEEGIRKLLENSFFDLNDDILIVRLLLKPQTVILTVIQSFMLMTPSPSRDAKAYCKKALINDQLVPTNDANILSEENELVNNFATKYVLIYEKMKLQELKEMEESKLKMKYSKTNLAALQVTNPQNNKDKNDASNKNNNPNNAATPLIAVVTDLSGEKTEDIINNNVDIATLSVGVQNTFQGP
modifications: bait human Fc-tagged dimer; N-glycosylation sequons mutated in Plasmodium baits
binding score (ADP098): 11.2

B2: ADP181 (protein)
chain: SSNDKNKINKNNMPLQRGASNLKDINIHNVEKKSNMESVNNNINNAACSKNLNANKVPNVAHTGVNKKGETKNEEVEKEENENEEIEKEEIENEENQQNEEDENEENQQNEEDENEENQQMNVNVDVSAEKKNKELPEEKKELQKNSEKNINKEVIKDSNKDNTFNFHKNINTAFNKNKNIYNNNNNNNNNNKAFIEKKEEAIDMKKTHCSNNNKMCKYNNMNNHMSTNKNNNQIFEESKQNVNKPIYNLKSLGNNAFKNDEKYNENDYKNNHDDDKKKYTDDSNEENIYEERNQKILLIHLLKNIKELLNRQRQNFNNFLSFLSENYQSYEKFYKSQKYQNGKNYIDKLDQQGELKNVAVVTHSFLDMSKAANGKKDKNGVFVKLMNDQNDDGDDTKDGDDTKDEDDHKNEDDHKNEDDHKNEDDHKNEDDHKNGDDNKNGDDHKNGDDNKNGDDDNGKKSHDISDIKNIIDTILQSDDITDEQKKYLEIIKKILDLEEDVLNKEKEQLQLNKNIIEVLMGKSDELRNIAVNLKNGNGDNEASQRVDLAQNIVSNLLNFAVQLKNTGNIVYNNIQGQGELLQSIEKNIDKAENDLKKSTSVNTAFTPKNVPNTEQNDQETQTDDDINDADIDENNNANDKNNCHMYKKNNCHMYKKNNCKKYFLNSHYNNYLCKKQKKYNKNDMGNKQKDNKKFKLNEAMKNHFYNIFVKETVMLKKLYKVLFELF
modifications: bait human Fc-tagged dimer; N-glycosylation sequons mutated in Plasmodium baits
binding score (ADP339): 6.19

B3: ADP191 (protein)
chain: IYYCNDNILENANNDDSTKDINNINKNSANKAKSEKTSNYNNDQYNIDDAYNEDEENDEEEGDDDENDHFEVPINCAGGNCFDSMDDINKIIDNKKKKMKYRRRRGKAIQIIKPNVNHAELIIIEENLEIFKRIDKPIAIVSVLGDMHTGKSFLLNLLNEHVIPDINKANKYIENGFKVGNDITASTYGIWIWSEPIRINVKKLKKIYEYINENFANFIKSYEYEKDEYNEEIIDLLNLYKTDDWISNVEELNLADTDEVNLILMDTQGLNSPNVNKRYDEILYALTNLISTDIIFLTMKMINNKDLEFIENIAKDANLFMLRAYTRSSGSTFSIKKNNFHKILDTLNNNLENNALILESIASKNLMWVVHDFSQRLDVRKGKLWLDILLNSDRRDLDIKYWKKIISNKAKDKHDAYTTKKQKIAYLTYNENSASGLLPNNNNNNNNANDASSNYKLNILYKNIDCVLLRNMYHNKEFDFTKANINDLNEEYKNDVLLLRYKIYLRALLFPKKMYSDVQINNIINKIRKEQKLREEQEKNKDNKKNDANNQANDLNSNKDETSGSQVTNRFMSGHDVYDFITFLVKSANQNLFTNVNQFFKHFKINRAEISRNDLIFLYKKYLLQFMENEDVEFISNLNDENDDLFLQKEGNNAAVNHDENSDADSLFNDHDENMQLKEHNIKDGEDNTHQKKDSYKLPPLLNEIKKYEELIREQILNIWYKYTESDFHDEEEKELIKDIENNLYERLDQIKIEMLELGEMNIRKFCKIACEDALQIVVEDIKMKSDQYPIKQKDLTTFFESVSYNLIKYLEKKLSKNSDKLDLIYYKDNICSPLINNAFQEFYFLKKKNIALNENRLKSYFSNAVEKGKEVFEVLAENTENIAEYFKNKNMFYTVLDKWTSEAINTYTLTLSDFAKEEKEINDEYLNVLNNDIKLLKQKAMEKWHNHCRDKTSALYNMHKSNLKKNFLENFNFPLDELVLQDIFLNLKGQEELKYMDIYCANEDSWNSEYKNFLKLTDEIFQFIKDENLKAIQITCQQPLDELKNGIKGEIHKYYLWSSLKSTLYNRALIVLSSNIENIYIKNQRENKIQSNLDEKYNNKNKNYKRISKDLMSKVINRWLNNDIYNVYYP
modifications: bait human Fc-tagged dimer; N-glycosylation sequons mutated in Plasmodium baits
binding score (ADP269): 9.74

B4: ADP246 (protein)
chain: GLCKPCTLENHYCEGGLESDITFNNKLIKGKFHTLPKKCPRGLGIPNIIKERNSINNCLCIHGKVQRTTENKNVECFPCPPNTFKENEYDNSCSGACPPFSTTFVGSSYENQCFCKNNYYLVSTDDENDANGNSINNNKNIYNNNNIYNNNNNNNNNNNNNFNNKADVKKKSCKICPIGAICNRGFNIYIYLKLLNDRSYNNINVIDHETPFPKYGYYAVYREKTNPAKSWDTLDDSAILNYVYPYHKLLLFIQKNIQKGNYFFLEKGNKFFLNDDFVEKMNEKSKYEEENANKFVTKSEIIHNVNTNNLKGKHNTLNNNNNNNNINKASSFLNQNNYNNDIIQLSSYENNPFKNLASTSEVSSNNNVISFIQNNDKTNNAANDNNIENLVDIFNKYVQEAKELQIQNRKFERIPDIHPCTIPNRCLGTLINLCSDGSTGYQCNNCAKNYDMSYFKSKCKKCQNLFYE
modifications: bait human Fc-tagged dimer; N-glycosylation sequons mutated in Plasmodium baits
binding score (ADP339): 15.5

B5: ADP188 (protein)
chain: QDEKSVKNICVCDFTDKLNFLPLEKTKILCELKPQYGEDIKIIANKEYEINCMNNAKVFCPLKDTFINNANIKLYSPKLHFEIKDITHKGKNAALYYLKIDEEASDIFFSCSIKPKQVSGLLEGEVRVNLKKHINEEYSIFNEEEDVHVCDFSKGNLDITPSAGFYLKNSRNVACIYRVIPNKLFLIKLPKLDIVTEKLLPSIVNCLSEFSFINFALKHVQEGDNYISFNVIFGEFKKHFNLACSLDLSDFQQEPCNLGKTANIAFIFSK
modifications: bait human Fc-tagged dimer; N-glycosylation sequons mutated in Plasmodium baits
binding score (ADP293): 5.5

B6: ADP236 (protein)
chain: EFVKGSYESKGYPLIHLMNNNEYTGSANNFIKNNLINLLYIYKDVKFDEEKTLGIDSFLDIEDDTKIERLIKEKMLYINKYINSRQMIKYSGFIYLYEIIEKKNFYFLLHFLMTNNNNGLIIILPEDMYINVDEYYRINKINKLNDQNKKNKVVSQDLLEKRIMFVQSLILNMKLQQSIYFIKNNKDIEKIYENYQSKFAYFDLTRNVAISPISKIQNVYKMNSKSLYYFLNKNNNIHINTIFNKQQDNQAFLLTKQKTIIICADFNVFNIFSDLPSNTAFTNSNLITIQNLIKLFYDVYNKEQVNYNILFFFTNYYYGIQDFLNSINVIFKENIEFVICLDNLNNADFYIYESNKAQPQNVQAFYRILNNIVKGSIKKNVQMVNEKIKIHSKHLPSLHEYFVLNKINSFSLSSSKKNNNMIFLNKFPMLQPKLNIQNVKNNIAIIFKSLYLYMTQKKTDQKENTQQEQSIEKNEKEKSMLTYINKNMASNDDMNTIDYNLNKYNKFFIYKEDTLKLFNYFKTIINSNIADTNFLIKDYKLTTDKKQKFFYQKYAHVTFSMAISYVFH
modifications: bait human Fc-tagged dimer; N-glycosylation sequons mutated in Plasmodium baits
binding score (ADP389): 5.5
